Test results from patent US20220332804A1 (CSL INNOVATION, published 2022).
Positions count from the first letter of the chain named.

Key:
Test in all cases: SPR, antibody captured, C2 as analyte;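 further: biacore at 37 °C, anti-C2 mAbs held by immobilised goat anti-human IgG, C2 alanine or serine mutants injected, double-referenced sensorgrams fitted to a 1:1 kinetic or steady-state model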
human C2 D417A = target: T1, human C2 D417A (human, UniProt P06681 21-752)
T1 sequence: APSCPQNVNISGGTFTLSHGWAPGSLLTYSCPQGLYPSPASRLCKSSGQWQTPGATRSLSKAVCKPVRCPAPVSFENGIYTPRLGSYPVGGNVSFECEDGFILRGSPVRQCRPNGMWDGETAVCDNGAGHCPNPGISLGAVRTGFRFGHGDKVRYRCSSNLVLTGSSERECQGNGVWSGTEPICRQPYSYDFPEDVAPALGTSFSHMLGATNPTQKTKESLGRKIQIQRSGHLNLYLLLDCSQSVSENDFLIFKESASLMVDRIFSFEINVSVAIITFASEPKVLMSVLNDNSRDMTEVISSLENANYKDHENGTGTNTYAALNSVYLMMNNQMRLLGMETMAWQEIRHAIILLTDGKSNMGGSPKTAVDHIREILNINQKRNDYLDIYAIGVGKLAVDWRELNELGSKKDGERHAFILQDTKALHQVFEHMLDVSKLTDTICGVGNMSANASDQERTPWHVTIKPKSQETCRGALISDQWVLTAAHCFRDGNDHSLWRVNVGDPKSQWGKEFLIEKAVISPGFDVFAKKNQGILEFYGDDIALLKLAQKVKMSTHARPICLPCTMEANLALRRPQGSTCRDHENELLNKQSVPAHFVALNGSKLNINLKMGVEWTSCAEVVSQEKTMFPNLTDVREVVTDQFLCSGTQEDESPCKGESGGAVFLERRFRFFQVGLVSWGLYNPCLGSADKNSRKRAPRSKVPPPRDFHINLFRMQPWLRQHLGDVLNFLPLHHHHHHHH
Experimental: (§1) Surface plasmon resonance (SPR, Biacore) was used for all binding affinity analyses. In brief, goat anti-human IgG was directly immobilised onto the carboxymethyl dextran surface of CM5 sensorchips to approximately 12,000 RU using standard NHS/EDC chemistry at pH 5. The immobilised antibody surface was pre-conditioned with ten injections of polyclonal human IgG (Privigen 60 s) prepared at 1 μg/mL. Ligands (anti-C2 mAbs) were captured at the beginning of each cycle as described below. An adjacent spot or flow cell in which only Polyclonal IgG was capture was used as a reference surface. The goat anti-human IgG Fc antibody surface was regenerate in 100 mM H3PO4, injected for 45 seconds at the end of each cycle. Experiments were performed at 37° C. and the flow rate of each experiment was kept constant at 30 μL/min.
(§2) Sensogram data was double-referenced against a reference anti-IgG surface (i.e. minus anti-C2 mAb) and blank buffer injections obtained within each experiment. The binding data was fit to 1:1 (kinetic or steady-state) model using local Rmax and null refraction index (RI=0) when appropriate. Buffers and solutions were filtered (0.22 μm) prior to use.

human C2 E433A = target: T2, human C2 E433A (human, UniProt P06681 21-752)
T2 sequence: T1 sequence with A397D, E413A
Experimental: as §1, §2

human C2 E686A = target: T3, human C2 E686A (human, UniProt P06681 21-752)
T3 sequence: T1 sequence with A397D, E666A
Experimental: as §1, §2

human C2 I272A = target: T4, human C2 I272A (human, UniProt P06681 21-752)
T4 sequence: T1 sequence with I252A, A397D
Experimental: as §1, §2

B1: RF16-242 (antibody, human IgG4 S228P, lambda, V domains shown)
VH: EVQLLQSGAEVKKPGESLKISCKGSGYSFTSYWIGWVRQMPGKGLEWMGIIYPGDSDTRYSPSFQGQVTISADKSISTAYLQWSSLKASDTAMYYCARRGHYGDYFDYWGQGTLVTVSS
VL: SYELTQPPSVSVSPGQTARITCSGDALPKKYAYWYHQKSGQAPVLVIYEDRRRPSEIPERFSGSSSGTMATLTITGAQVEDEGVYFCYSRDRAGNQRVFGGGTQLTVLG
notes: pH-dependent anti-C2 antibody from a phage display library
B1 was tested, and the Kd (human C2 D417A) was 23 nM, the Kd (human C2 E433A) was 3 nM and the Kd (human C2 E686A) was 32.6 nM. It also gave a Kd (human C2 I272A) of 10.3 nM.
